Data as given in US20200172618A1 (GENE SIGNAL INTERNATIONAL, published 2020).
Blank lines part the entries; values can stand above or below the binder they belong to.

Target: T1, Strep-CD9P1-ECD (recombinant soluble human CD9P-1 extracellular domain with Strep tag) (human, UniProt Q9P2B2 22-832)
T1 construct: The limits 22-832 are stated for the recombinant extracellular domain made in CHO cells and used as immunogen; also called recombinant CD9P-1 extracellular domain; not shown: Strep tag; Residue numbers of the construct are 8 higher than those of CD9P-1
T1 sequence: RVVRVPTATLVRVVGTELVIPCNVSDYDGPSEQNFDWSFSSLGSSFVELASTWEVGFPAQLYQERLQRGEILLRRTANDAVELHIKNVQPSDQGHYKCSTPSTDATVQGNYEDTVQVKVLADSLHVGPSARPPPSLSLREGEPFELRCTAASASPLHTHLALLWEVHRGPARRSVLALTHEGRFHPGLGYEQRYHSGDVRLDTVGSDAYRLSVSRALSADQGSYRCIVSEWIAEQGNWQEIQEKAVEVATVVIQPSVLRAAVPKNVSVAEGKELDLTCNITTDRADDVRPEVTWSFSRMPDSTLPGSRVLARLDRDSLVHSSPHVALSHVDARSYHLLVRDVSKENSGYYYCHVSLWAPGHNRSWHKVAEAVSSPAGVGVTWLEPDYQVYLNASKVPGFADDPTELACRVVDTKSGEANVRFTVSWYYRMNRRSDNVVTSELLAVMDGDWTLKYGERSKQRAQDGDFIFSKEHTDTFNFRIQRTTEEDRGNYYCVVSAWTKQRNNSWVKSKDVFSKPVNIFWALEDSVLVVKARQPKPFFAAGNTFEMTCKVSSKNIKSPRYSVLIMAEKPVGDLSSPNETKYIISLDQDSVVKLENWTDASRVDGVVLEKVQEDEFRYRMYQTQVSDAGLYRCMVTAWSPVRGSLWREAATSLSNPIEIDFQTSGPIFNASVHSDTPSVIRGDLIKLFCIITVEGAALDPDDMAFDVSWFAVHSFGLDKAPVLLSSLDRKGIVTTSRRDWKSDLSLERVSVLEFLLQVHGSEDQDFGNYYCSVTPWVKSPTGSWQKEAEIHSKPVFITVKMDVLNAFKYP
Assay: SPR; Strep-CD9P1-ECD coated on sensor chip, antibody flowed over
From the text: Recombinant Strep-CD9P1-ECD was coated on sensor chip and several concentrations of the antibodies were flowed over the chip to obtain binding and dissociation kinetics.

Kd: 90.9 nM
koff: 0.00491 s⁻¹
kon: 54100 M⁻¹ s⁻¹
B1: 9bF4 mAb (mouse anti-human CD9P-1 monoclonal antibody, hybridoma CNCM I-5213) (antibody, V domains shown)
VH: QVQLQQSGAELVKPGTSVKLSCKTSGYTFTSYWIQWIKQRPGQGLGWIGEIFPGTGTTSYHEKFKGKATLTIDTSSSTAYLQLSNLTSEDSAVYFCSRDFDVWGAGTTVTVSS
VL: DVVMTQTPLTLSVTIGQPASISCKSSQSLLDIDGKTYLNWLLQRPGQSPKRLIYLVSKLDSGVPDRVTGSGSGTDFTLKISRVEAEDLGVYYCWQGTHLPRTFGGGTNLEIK
notes: Mouse IgG from a hybridoma, purified on protein G; also called Mouse IgG 9bF4; IgG 9bF4

Kd: 899 nM
koff: 0.0118 s⁻¹
kon: 13200 M⁻¹ s⁻¹
B2: 10bB1 mAb (mouse anti-human CD9P-1 monoclonal antibody, hybridoma CNCM I-5214) (antibody, V domains shown)
VH: B1 VH
VL: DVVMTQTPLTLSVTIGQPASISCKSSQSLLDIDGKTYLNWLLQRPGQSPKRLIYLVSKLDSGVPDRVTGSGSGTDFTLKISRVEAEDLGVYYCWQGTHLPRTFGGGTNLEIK
notes: Mouse IgG from a hybridoma; also called IgG 10bB1; 10bB11
